Measured values reported in US20090291088A1, “THERAPEUTIC COMBINATIONS OF ANTI-IGF-1R ANTIBODIES AND OTHER COMPOUNDS” (Biogen Idec MA Inc., priority 2008, published 2009).

B1: M14-C03 Fab (Fab, V domains shown)
VH: EVQLLESGGGLVQPGGSLRLSCAASGFTFSKYMMSWVRQAPGKGLEWVSYISPSGGLTWYADSVKGRFTISRDNSKNTLYLQMNSLRAEDTAVYYCARDGARGYGMDVWGQGTTVTVSS
VL: DIQMTQSPATLSLSPGERATLSCRASQSVSSYLAWYQQKPGQAPRLLIYDASNRATGIPARFSGSGSGTDFTLTISSLEPEDFAVYYCQQRSNWPPEVTFGPGTKVDIK
B2: M13-C06 Fab (Fab, V domains shown)
VH: EVQLLESGGGLVQPGGSLRLSCAASGFTFSIYRMQWVRQAPGKGLEWVSGISPSGGTTWYADSVKGRFTISRDNSKNTLYLQMNSLRAEDTAVYYCARWSGGSGYAFDIWGQGTMVTVSS
VL: DIQMTQSPLSLSASVGDRVTITCQASRDIRNYLNWYQQKPGKAPKLLIYDASSLQTGVPSRFGGSGSGTDFSFTIGSLQPEDIATYYCQQFDSLPHTFGQGTKLEIK

How the values were obtained:
[1] = biological target: All other mutant IGF-1R constructs (SD001-SD019 other than SD015); assay: SPR, Fab over captured mutant receptor-Fc
[2] = biological target: murine IGF-1R(1-903)-Fc (mouse; human) (UniProt Q60751); assay: SPR, Fab over captured mIGF-1R-Fc
[3] = biological target: murine IGF-1R(1-903)-Fc (mouse; human) (UniProt Q60751); assay: SPR, Fab over captured mIGF-1R-Fc, 3 hr dissociation
[4] = biological target: murine IGF-1R(1-903)-Fc (mouse; human) (UniProt Q60751); assay: SPR
[5] = biological target: murine IGF-1R(1-903)-Fc (mouse; human) (UniProt Q60751); assay: SPR, Fab over mIGF-1R-Fc captured by anti-Fc, apparent affinity

Binder | Kd [1] [nM] | kon [2] [M⁻¹ s⁻¹] | koff [3] [s⁻¹] | fold decrease in binding against human IGF-1R Fc [4] [fold] | Kd [5] [nM]
B1 | 5 | – | – | – | –
B2 | 1 | 471 | 4.2e-05 | 100 | 89.1
